From US20220002432A1 (VIRTUOSO BINCO, published 2022) come the findings set out here.

Assay [1] has as its target T1, recombinant human CD38 (human, UniProt P28907 43-300, limits assumed). Nature of the assay: ELISA: plate coated with 1 ug/ml recombinant human CD38 ECD, serially diluted antibody, OD450. A general note: An ELISA detects its analyte on a solid surface through an enzyme-linked reagent.
Method: (§1) The plate was coated overnight at 4° C. with 1 μg/ml recombinant CD38 or ICAM1. After washing 3 times, the plate was blocked with 300 μl 1% BSA in PBST at 37° C. for 1 hour. Serially diluted antibodies were added and incubated at 37° C. for 1 hour. The plate was then washed 4 times with PBST and incubated with 1:5000 diluted 2nd antibody (Sigma, Cat #A0293) at 37° C. for 1 hour.
The target of assay [2] is T2, cynomolgus CD38 ECD (cynomolgus, UniProt Q5VAN0 44-301, biotinylated on the AviTag during preparation).
T2 construct: also called Cyno-CD38; Avi-Cyno CD38 ECD
Nature of the assay: ELISA: plate coated with 1 ug/ml recombinant cynomolgus CD38 ECD, serially diluted antibody, OD450.
Method: as §1

Assay [3] concerns the target T1, recombinant human CD38. Nature of the assay: SPR (Biacore 8K), antibody captured, antigen injected. (SPR reads the build-up and loss of mass on a sensor chip optically.)
Method: (§2) The binding kinetics of the anti-CD38 and anti-ICAM1 antibodies were evaluated on a Biacore 8K instrument (GE Healthcare). Biacore Series S CM5 sensor chips were immobilized with monoclonal mouse anti-human IgG (Fc) antibody (human antibody capture kit from GE Healthcare). Antibodies were captured on each flow cell. Serial 3-fold dilutions of each antigen were injected at a flow rate of 30 μl/min. Each sample was analyzed with 1 min association and 10 min dissociation at room temperature (25° C.). After each injection, the chip was regenerated using 3M MgCl₂. A 1:1 Langmuir model of simultaneous fitting of kₒₙ and koff was used for kinetics analysis.
For assay [4], the target named is T2, cynomolgus CD38 ECD. The assay is described as above.
Method: as §2
Assay [5] concerns the target T3, CD38 on the surface of Daudi cells (human, UniProt P28907 1-300).
T3 construct: whole, on cells
Nature of the assay: flow cytometry, Daudi cells.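 Note: purified antibodies incubated with Daudi cells for 1 h at 4 °C, bound antibody detected by fluorescent secondary antibody and read by flow cytometry as MFI.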
Method: Harvested cells were centrifuged at 2000 rpm for 5 min and resuspended with 10-15 ml ice-cold culture medium. Cells were counted and then 3×10⁶ cells were resuspended per mL of blocking buffer (PBS plus 2% FBS). 100 μl of the cell suspension was dispensed into each well of a 96-well plate and incubated at room temperature for 10-20 min. […] While incubating, purified antibodies were diluted to the desired dilution with blocking buffer. After a 10-20 minutes incubation, cells were centrifuged for 5 min at 2000 rmp in a refrigerated centrifuge. Blocking buffer was aspirated, and cells were resuspended in 100 μl/well diluted antibodies and incubated for 1 hour at 4° C. The cells were then washed 3 times with PBS plus 2% FBS. After the final wash, the cells were resuspended in 100 μl 1:500 diluted secondary antibody (Invitrogen, Cat #: A10631) and incubated for 1 hour at 4° C. in the dark. The cells were then washed 3 times with 200 μl PBS by centrifuging at 2000 rpm for 5 min. After the last wash, the cells were resuspended in 300 μl cold PBS and analyzed on a FACSVerse™ (BD Biosciences) flow cytometer.

Assay [6] concerns the target T4, recombinant human ICAM1 (human, UniProt P05362 28-480, limits assumed). Nature of the assay: SPR (Biacore T200), antigen immobilised, antibody injected.
Method: The binding kinetics of the bispecific anti-CD38/anti-ICAM1 antibodies were evaluated using Biacore T200 (GE Healthcare). The recombinant CD38 or ICAM1 were immobilized at low density on Biacore Series S CM5 sensor chips using the amine coupling kit (GE Healthcare). Serial 3-fold dilutions of each antibody were injected at a flow rate of 30 ul/min. Each sample was analyzed with 3m association and 15 min dissociation at room temperature (25° C.). After each injection, the chip was regenerated using 10 mM Glycine pH1.5. A 1:1 Langmuir model of simultaneous fitting of kₒₙ and koff was used for kinetics analysis.
The target in assay [7] is T4, recombinant human ICAM1. Nature of the assay: ELISA: plate coated with 1 ug/ml recombinant human ICAM1 ECD, serially diluted antibody, OD450.
Method: as §1
Assay [8] concerns the target T4, recombinant human ICAM1. Nature of the assay: SPR (Biacore 8K), antibody captured, antigen injected.
Method: as §2
Assay [9] deals with T5, Rhesus-ICAM1 (rhesus, UniProt Q5NKV6 28-480, limits assumed).
T5 sequence (looked up): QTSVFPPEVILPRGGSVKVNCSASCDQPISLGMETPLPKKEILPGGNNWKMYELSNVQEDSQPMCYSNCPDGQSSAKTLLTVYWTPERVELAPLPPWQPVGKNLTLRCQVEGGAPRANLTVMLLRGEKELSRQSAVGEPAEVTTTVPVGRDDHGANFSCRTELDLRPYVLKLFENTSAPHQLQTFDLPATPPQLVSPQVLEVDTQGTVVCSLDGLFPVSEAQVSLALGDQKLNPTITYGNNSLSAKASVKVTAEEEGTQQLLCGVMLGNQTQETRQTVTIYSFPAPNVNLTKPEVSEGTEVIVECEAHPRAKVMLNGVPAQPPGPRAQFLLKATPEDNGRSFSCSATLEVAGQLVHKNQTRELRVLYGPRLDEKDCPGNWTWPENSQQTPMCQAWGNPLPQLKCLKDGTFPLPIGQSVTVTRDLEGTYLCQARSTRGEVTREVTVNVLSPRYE
Described as above.
Method: as §2

Assay [10] has as its target T5, Rhesus-ICAM1. Nature of the assay: ELISA: plate coated with 1 ug/ml recombinant rhesus ICAM1 ECD, serially diluted antibody, OD450.
Method: as §1
The target in assay [11] is T6, ICAM1 on the surface of DU145 cells (human, UniProt P05362 28-532).
T6 construct: whole, on cells
T6 sequence (P05362 28-532): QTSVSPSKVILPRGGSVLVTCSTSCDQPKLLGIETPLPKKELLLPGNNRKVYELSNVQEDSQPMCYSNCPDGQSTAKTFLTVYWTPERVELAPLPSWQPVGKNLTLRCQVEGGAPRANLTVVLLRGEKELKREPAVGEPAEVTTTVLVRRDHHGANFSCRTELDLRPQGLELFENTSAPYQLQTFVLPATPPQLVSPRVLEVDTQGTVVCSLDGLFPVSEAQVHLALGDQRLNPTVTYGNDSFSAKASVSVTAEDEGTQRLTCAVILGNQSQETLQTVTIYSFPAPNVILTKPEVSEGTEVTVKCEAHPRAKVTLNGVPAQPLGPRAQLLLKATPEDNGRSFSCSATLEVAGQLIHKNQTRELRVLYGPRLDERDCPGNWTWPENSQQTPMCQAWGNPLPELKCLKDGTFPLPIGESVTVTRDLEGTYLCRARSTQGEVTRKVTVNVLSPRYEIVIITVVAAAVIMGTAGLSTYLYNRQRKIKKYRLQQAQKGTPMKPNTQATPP
Nature of the assay: flow cytometry, DU145 cells.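 Note: purified antibodies in dilution series bound to cells for 1 h at 4 °C, detected with a fluorescent secondary antibody (1 h, 4 °C, dark), read by flow cytometry.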

One may read the EC50 (read off the curve) as the concentration that produces a half-maximal response. Broadly, the Kd is the equilibrium constant for the complex coming apart. The term koff denotes the first-order rate constant of dissociation. As usually defined, the kon is the second-order rate constant of association. Broadly, the EC50 is the concentration giving half of the maximal effect. A low value points to higher potency in that assay.

T4 sequence (P05362 28-480 limits assumed): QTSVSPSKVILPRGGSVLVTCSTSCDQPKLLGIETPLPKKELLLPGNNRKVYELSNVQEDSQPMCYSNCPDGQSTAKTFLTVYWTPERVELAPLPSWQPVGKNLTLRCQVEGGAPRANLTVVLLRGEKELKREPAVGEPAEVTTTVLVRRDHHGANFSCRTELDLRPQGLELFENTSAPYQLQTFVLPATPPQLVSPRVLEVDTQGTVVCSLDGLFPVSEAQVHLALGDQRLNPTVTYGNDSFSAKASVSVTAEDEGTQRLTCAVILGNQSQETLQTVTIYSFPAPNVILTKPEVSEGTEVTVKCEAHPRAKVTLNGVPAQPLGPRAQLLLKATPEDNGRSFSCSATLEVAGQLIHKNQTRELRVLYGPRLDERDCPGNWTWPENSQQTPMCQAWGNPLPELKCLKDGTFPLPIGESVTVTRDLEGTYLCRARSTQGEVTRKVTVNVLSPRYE

B1: 25E4 (antibody, human IgG1, kappa, V domains shown)
VH: QSLEESGGRLVTPGTPLTLTCTVSGIDLSIYTMAWVRQAPGKGLEYIGIISGYGTTYYATWAKGRFIVSKTSTTVDLKITSPTTEDTATYFCVRTTVQSTDLWGPGTLVTVSS
VL: DIVMTQTPASVEAAVGGTVTINCQASQNIYSNLAWYQQKPGQRPKLLIYKASTLASGVSSRFKGSGSGTEFTLTISDLASADAATYYCQSYYGATSSSFGYGFGGGTEVVVKR
notes: Rabbit-human chimeric anti-CD38: rabbit VH and VL on human IgG1 and kappa constant regions
Regarding B1, in assay [1], the concentration giving a half-maximal response (EC50 (read off the curve)) was roughly 60 pM. Further, in assay [2], the 50% effective concentration (EC50 (read off the curve)) was roughly 60 pM. For the same molecule, in assay [3], the equilibrium dissociation constant (Kd) is 70 pM, the koff was determined as 2.59e-05 s⁻¹ and the kon worked out at 380000 M⁻¹ s⁻¹. In assay [4], this molecule returned a Kd of 140 pM, an off-rate (koff) of 0.000175 s⁻¹ and a kon of 1.23e+06 M⁻¹ s⁻¹. Also, in assay [5], the EC50 came out at 503 pM and the “Max Binding MFI” value came to 859 MFI.

B2: 17F7 (antibody, human IgG1, kappa, V domains shown)
VH: QSVEESGGRLVTPGTPLTLTCTASGFSLSSYYMSWVRQAPGKGLEWIGFISKTAITYYASWARGRFTISKTSTAVDLKITSPTTEDTATYFCARVDAYSAGDLWGPGTLVTVSS
VL: AQVLTQTPSSVSAAVGGTVTINCQASQSVYSDNRLSWFQQKSGQPPKLLIYSTSSLASGVPSRFSGSGSGTQFTLTISGVQSDDAASYYCQGEFICTSADCFVFGGGTEVVVKR
notes: as for B1
Consider B2, for which the “EC50 (read off the curve)” value in assay [1] was roughly 60 pM. Moreover, in assay [2], the concentration for a half-maximal effect (EC50 (read off the curve)) was roughly 60 pM. Moreover, in assay [3], the equilibrium dissociation constant (Kd) was determined as 7560 pM, the off-rate (koff) is 0.00378 s⁻¹ and the kon was found to be 500000 M⁻¹ s⁻¹. In [4], this molecule gave a Kd of 2320 pM, a koff of 0.00382 s⁻¹ and a kon of 1.65e+06 M⁻¹ s⁻¹. Besides, in assay [5], the EC50 amounted to 432 pM and the “Max Binding MFI” value was 1530 MFI.

B3: 25C3 (antibody, human IgG1, kappa, V domains shown)
VH: QEQLEESGGDLVKPGASLTLTCKASGFSFSSAYDMCWVRQAPGKGLEWVACLYTVSSDSIYYASWAKGRFTISRTSSTTVTLQMTSLTAADTATYFCARDGDYFALWGPGTLVTVSS
VL: DIVMTHTPASVEAAVGGTVTIKCQASQNIGGYLSWYQQKPGQRPKLLIYRASTLASGVPSRFKGSGSGTQFTLTISDLESADAATYYCQTYYYSGSSRYWAFGGGTEVVVKR
notes: as for B1
For the molecule B3, the “EC50 (read off the curve)” value in assay [1] was roughly 60 pM. In addition, in assay [2], the “EC50 (read off the curve)” value is roughly 60 pM. In addition, in [3], the Kd amounted to 30 pM, the off-rate (koff) stood at 3.48e-05 s⁻¹ and the kon was found to be 1.15e+06 M⁻¹ s⁻¹. In assay [4], this molecule came in with a Kd of 150 pM, an off-rate (koff) of 0.000187 s⁻¹ and a kon of 1.23e+06 M⁻¹ s⁻¹. In assay [5], the 50% effective concentration (EC50) is 347 pM and the “Max Binding MFI” value worked out at 1180 MFI.

B4: Anti-ICAM1 G12 (antibody, human IgG1, lambda, V domains shown)
VH: QVQLQESGGGLVQPGGSLRLSCAASGFTFSSYAMSWVRQAPGKGLEWVSAISGSGGSTYYADSVKGRFTISRDNSKNTLYLQMSSLRAEDTAFYYCANSAYTGGWYDYWGHGTLVTVSS
VL: ASELTQDPAVSVALGQTVKITCQGDSLRTYYASWYQQRPGQAPVLVIYGENSRPSGIPDRFSGSSSGNTASLTITGAQAEDEADYYCNSRDSSGNHLRVFGGGTKLTVLG
notes: Human IgG1 with a lambda light chain; also called anti-ICAM1 clone G12
For B4, in [6], the Kd was 3200 pM, the koff is 0.000763 s⁻¹ and the kon was 242000 M⁻¹ s⁻¹. Moreover, in [7], the concentration for a half-maximal effect (EC50 (read off the curve)) is roughly 40 pM. In addition, in assay [8], the dissociation constant Kd came out at 12200 pM, the koff is 0.00331 s⁻¹ and the kon stood at 272000 M⁻¹ s⁻¹. Besides, in [9], the dissociation constant (Kd) turned out to be 17700 pM, the koff was 0.0224 s⁻¹ and the kon was determined as 1.27e+06 M⁻¹ s⁻¹. Moreover, the half-maximal effective concentration (EC50 (read off the curve)) in assay [10] was roughly 40 pM. In assay [11], the EC50 came to 260 pM and the “Max Binding MFI” value amounted to 5010 MFI.

B5: 18E4 (antibody, human IgG1, kappa, V domains shown)
VH: QSLEESGGDLVKPGASLTLTCTASGFSFNNYWICWIRQAPGKGLEWVACIYSPSGDIKYYANWAKGRFTVSKTSSTTVTLQMTSLTGADTATYFCARELSGSSYEGYFESWGPGTLVTVSS
VL: AQVLTQTPSSVSAAVGGTVTINCQCSQSVYGHNWLAWYQHKPGQPPKLLMYRASNLASGVPSRFKGSGSGSQFTLTIGEVQSDDAATYYCQGYYNGGSYAFGGGTEVVVRR
notes: as for B1
For B5, in assay [1], the 50% effective concentration (EC50 (read off the curve)) was roughly 60 pM. Further, in assay [2], the concentration for a half-maximal effect (EC50 (read off the curve)) is roughly 60 pM. Besides, in assay [3], the equilibrium dissociation constant (Kd) stood at 270 pM, the off-rate (koff) amounted to 8.13e-05 s⁻¹ and the kon turned out to be 303000 M⁻¹ s⁻¹. Moreover, in assay [4], the equilibrium dissociation constant (Kd) came to 420 pM, the koff came out at 0.000236 s⁻¹ and the on-rate (kon) was 563000 M⁻¹ s⁻¹. Moreover, in assay [5], the EC50 amounted to 900 pM and the “Max Binding MFI” value is 1580 MFI.

B6: 25F12 (antibody, human IgG1, kappa, V domains shown)
VH: RSLEESGGRLVTPGTPLTLTCTTSGFSLSSYDMSWVRQAPGKGLEWIGYITYGGNIYYATWAKGRFTTSKTSTTVDLKITSPTTEDTATYFCARTLYTGGRYYFSLWGPGTLVTVSS
VL: AQVLTQTPSSVSAVVGGTVTINCQSSQSIANSNEVAWYQQKLGQPPKLLIYDASTLASGVPSRFSGSGSGTQFTLIISGVQSDDAATYYCQGTVYDNVWYAAFGGGTEVVVKR
notes: as for B1
With B6, the “EC50 (read off the curve)” value in [1] is roughly 60 pM. Also, the “EC50 (read off the curve)” value in assay [2] was roughly 60 pM. Moreover, in assay [3], the equilibrium dissociation constant (Kd) was 10 pM, the off-rate (koff) was found to be 2.24e-05 s⁻¹ and the kon was found to be 1.84e+06 M⁻¹ s⁻¹. Besides, in [4], the equilibrium dissociation constant (Kd) amounted to 180 pM, the koff worked out at 0.000185 s⁻¹ and the kon came to 1.04e+06 M⁻¹ s⁻¹. In assay [5], the response was half-maximal at 263 pM (EC50) and the “Max Binding MFI” value was 1030 MFI.

B7: 27F6 (antibody, human IgG1, kappa, V domains shown)
VH: QSLEESGGGLVKPGASLTLTCKASGFSFSSGCDMCWVRQAPGKGLEWISCIYTGSGSTYYANWAKGRFTISRTSSTTVTLQMTSLTAADTATYFCAGDSDYLGLWGPGTLVTVSS
VL: DIVMTQTPSSVEAAVGGTVTIKCQASQNIGNYLAWYQQKPGQPPKVLIYRASTLASGVPSRFKGSGSGTHFTLTISDLESADAATYYCQSYYYTTDDNYRSWAFGGGTEVVVKR
notes: as for B1
With B7, in assay [1], the 50% effective concentration (EC50 (read off the curve)) is roughly 60 pM. The “EC50 (read off the curve)” value in [2] was roughly 60 pM. Moreover, in [3], the Kd came to 310 pM, the koff was 0.000117 s⁻¹ and the kon came to 376000 M⁻¹ s⁻¹. In [4], the dissociation constant Kd turned out to be 280 pM, the koff is 0.00029 s⁻¹ and the kon was found to be 1.02e+06 M⁻¹ s⁻¹. Besides, in [5], the EC50 came to 298 pM and the “Max Binding MFI” value was determined as 1200 MFI.

B8: 17E9 (antibody, human IgG1, kappa, V domains shown)
VH: QSVEESGGRLVTPGTPLTLTCTASGFSLSRYYVTWVRQAPGKGLEWIGIIYISGTTYYATWAKGRFTISKSATTVDLRIASPTTEDTATYFCAAAWPVGTYVLPLWGPGTLVTVSS
VL: AAVLTQTPSPVSAAVGGTVTIKCQSSQSVVNANNLSWYQQKPGQPPKLLIYLASTLASGVPSRFSGSGSGTQFTLTISSVQSDDAATYYCLGVYDDDGDNAFGGGTEVVVKR
notes: as for B1
As to B8, in [1], the 50% effective concentration (EC50 (read off the curve)) was roughly 60 pM. Besides, the “EC50 (read off the curve)” value in [2] was roughly 60 pM. Further, in assay [3], the Kd was 150 pM, the koff stood at 0.000142 s⁻¹ and the on-rate (kon) was 923000 M⁻¹ s⁻¹. Besides, in assay [4], binding was characterised by a dissociation constant (Kd) of 60 pM, the off-rate constant (koff) is 0.000166 s⁻¹ and the kon came to 2.64e+06 M⁻¹ s⁻¹. Further, in [5], the EC50 worked out at 263 pM and the “Max Binding MFI” value came out at 2260 MFI.
